Reference: publication PMC3744072, “Analysis of the cartilage proteome from three different mouse models of genetic skeletal diseases reveals common and discrete disease signatures” (Biology Open, 2013)
Where “and” joins values, the source holds several entries; their conditions need not be identical. Equal values may be shown once.

Columns and labels:
[1] = molecular target: the molecule itself; assay: non-reducing SDS-PAGE and Western blot; total protein lysates of isolated chondrocytes of 5-day-old mice, 4-12% gels, non-reduced against reduced (0.1 M DTT); oligomers assigned by apparent size
[2] = molecular target: the molecule itself; assay: non-reducing SDS-PAGE and Western blot; sequential extracts (buffer 1: 0.15 M NaCl; buffer 2: 1 M NaCl, 10 mM EDTA; buffer 3: 4 M GuHCl, 10 mM EDTA) of knee cartilage of 3-week-old mice, non-reducing 4-13.5% gels; oligomers assigned by apparent size

Protein	stoichiometry N [1]	stoichiometry N [2]
cartilage oligomeric matrix protein (COMP), wild type, mouse (natural protein, cartilage oligomeric matrix protein, mouse, endogenous in chondrocytes; The text calls the retained form consistent with a tetramer; also called wild type COMP; source: endogenous, lysate of isolated costal chondrocytes of Matn3 V194D mice) not shown	4	–
matrilin-4 (mouse) (natural protein, mouse (endogenous in mouse cartilage), UniProt O89029 22-624, looked up, matrilin-4, mouse, endogenous in cartilage) QLQSAGPRCYNGPLDLVFMIDSSRSVRPFEFETMRQFLVGLLRSLDVGLNATRVGVIQYSSQVQSVFPLGAFSRREDMERAIRAVVPLAQGTMTGLAIQYAMNVAFSEAEGARPSEERVPRVLVIVTDGRPQDRVAEVAAQARARGIEIYAVGVQRADVGSLRTMASPPLDQHVFLVESFDLIQEFGLQFQGRLCGKDLCAELVHGCQHLCVNAPGTFYCACNSGYKLAPDNKNCLALDLCAEGTHGCEHLCVNSVDSYFCRCRAGFALQQDQRSCRAIDYCSFGNHSCQHECVSTLAGPQCRCREGHDLLPDGRSCRVRDFCNGVDHGCEFQCVSEGLSFHCLCPEGRRLQADGKSCDRCREGHVDLVLLVDGSKSVRPQNFELVKRFVNQIVDFLDVSPEGTRVGLVQFSSRVRTEFPLGRYGTAAEVKQAVLAVEYMERGTMTGLALRHMVEHSFSEAQGARPRDLNVPRVGLVFTDGRSQDDISVWAARAKEEGIVMYAVGVGKAVEEELREIASEPSELHVSYSPDFSTMTHLLENLKGSICPEEGIGAGTELRSPCECESLVEFQGRTLGALESLTQNLARLTERLEELENQLASRK	–	2 and 3
